Reference: the nanobody polyreactivity screen of Harvey et al. (2022)

Experiment: yeast display, Sf9 membrane polyspecificity reagent, FACS + sequencing; frameworks hold sequencing errors
Summary of the method: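 Genes from sorted yeast were amplified by colony PCR, read by MiSeq 2 × 250 sequencing and filtered on CDR length. These cells carried a synthetic nanobody library in Saccharomyces cerevisiae BJ5465 and were sorted by FACS into low and high (top ~1%) gates on anti-HA and streptavidin fluorescence. Polyreactivity is labelled according to the gate of origin.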

Row | Sequence | polyreactivity (PSR sort gate)
1 | QVQLVESGGGLVQAGGSLRLSCAASGLIFLYYAMGSYRQAPGKERELVAAIRTNYADSVKGRFTISRDNAKNTVSLQMNSLKPEDTAVYYCIAVSGDSGDYWGQGTQVTVSS | low polyreactivity
2 | QVQLVESGGGLVQAGGSLRLSCAASGLIFLYYTMGWYRQAPGKERELVAAISSAGRTNYADSVKGRFTISRDNAKNTVYLQMNSLKPEDTAVYYCNADGGWWARYGYWGQGTQVTVSS | low polyreactivity
3 | QVQLVESGGGLVQAGGSLRLSCAASGLIFNWNDMGWYRQAPGKERELVAAISGDGGITYYADSVKGRFTISRDNAKNTVFLQMNSLKPEDTAVYYCNAGFTWGDWYDYWGQGTQVTVSS | low polyreactivity
4 | QVQLVESGGGLVQAGGSLRLSCAASGLIFPANAMGWYRPAPGKERELVAAISWRGSSTYYADSVKGRFTISRDNAKNTVYLQMNSLKPEDTAVYYCNVYVRSGSLRDIGYKYDYWGQGTQVTVSS | high polyreactivity
5 | QVQLVESGGGLVQAGGSLRLSCAASGLIFPRYTMGWYRQAPGKERELVAAIRGTGGSTYYADSVKGRFTISRDNAKNTVYLQMNSLKPEDTAVYYCATRGKSHGQQFNYWGQGTQVTVSS | high polyreactivity
6 | QVQLVESGGGLVQAGGSLRLSCAASGLIFPSYVMGWYRLAPGKERELVAGITIGDRTYYADSVKGRFTISRDNAKNTVYLQMNSLKPEDTAVYYCAAVYTYAGRRFGYWGQGTQVTVSS | high polyreactivity
7 | QVQLVESGGGLVQAGGSLRLSCAASGLIFPWNAMGWYRQAPGKERELVAAINGRDGSTYYADSVKGRFTISRDNAKNTVYLQMNSLKPEDTAVYYCAKGPSGVRTYREYDSWGQGTQVTVSS | low polyreactivity
8 | QVQLVESGGGLVQAGGSLRLSCAASGLIFQFNAKGWYTQAPGKDREFVAAISGRADSTYYADSVKGRFTISRDNAKNTVYLQMNSLKPEDTAVYYCAALAYYHRYEYWGQGTQVTVSS | low polyreactivity
9 | QVQLVESGGGLVQAGGSLRLSCAASGLIFQHNAMGWYRQAPGKERELVAAISRSAGSTYYADSVKGRFTISRDNAKNTVYLQMNSLKPEDTAVYYCAKRPTPTSKYDTVRYGYWGQGTQVTVSS | low polyreactivity
10 | QVQLVESGGGLVQAGGSLRLSCAASGLIFQLYAMGWSRQAPGKERELLAAITIRDGSTYYADSVKGRFTISRDNAKNTVYFQMNSLKPEDTAFYFCAAEPVYYYPWSQYDYWGQGTQVTVSS | high polyreactivity
11 | QVQLVESGGGLVQAGGSLRLSCAASGLIFQSYAMGWYRQAPGKERELVAVITWSGTSTYADSVKGRFTISRDNAKNTVYLQMNSLKPEDTAVYYCAASKYGSFTNFGYWGQGTQVTVSS | low polyreactivity
12 | QVQLVESGGGLVQAGGSLRLSCAASGLIFQTYAMGWYRQAPGKERELVATISGSTGGTYYADSVKGRFTISRDNAKNTVYLQMNSLKPEDTAVYYCNASVFQSEYDYWGQGTQVTVSS | low polyreactivity
13 | QVQLVESGGGLVQAGGSLRLSCAASGLIFQVYTMGWYRQAPGKERELVAAISWDAGSTYYADSVKGRFTISRDNAKNTVYLLMNSLKPEDTAVYYCATTQYTTYGRRYYWGQGTQVTVSS | high polyreactivity
14 | QVQLVESGGGLVQAGGSLRLSCAASGLIFQYYVMGWYRQAPGKERQLVAAISARGGGTYYADSVKGRFTISRDNAKNTVYLQMNSLKPEDTAVYYCAADPVYAGPGYDYWGQGTQVTVSS | high polyreactivity
15 | QVQLVESGGGLVQAGGSLRLSCAASGLIFRANSMGWYRQPPGKVRELVAAISSGGSTYYADSVKGRFTISRDNAKNTVYLQMNSLIPEDTAFYYCAALGQSPSRFGYWGQGTQVTVSS | low polyreactivity
16 | QVQLVESGGGLVQAGGSLRLSCAASGLIFRGYAMGWYRQAPGKERELVAAISRSGGRTYYADSVKGRYTISRDNAKNTVYLQMNSLKPVDTAVYYCAAQWLYLEYDYWGQGTQVTVSS | high polyreactivity
17 | QVQLVESGGGLVQAGGSLRLSCAASGLIFRHYAMGWYRQAPGKERELVDAITRSGGSTNYADSVKGRFTISRDNAKNTVYLQMNSLKPEDTAVYYCNAGIRYFVVGRSSYDYWGQGTQVTVSS | low polyreactivity
18 | QVQLVESGGGLVQAGGSLRLSCAASGLIFRHYTMGWYRQAPGKERELVAAISRSGGSTRYADSVKGRFTISRDNAKNTVYLQMNSLKPEDTAVYYCAASSVKSTWTLDYWGQGTQVTVSS | high polyreactivity
19 | QVQLVESGGGLVQAGGSLRLSCAASGLIFRKNAMGWDRQAPGKERELVAAMSYNGASTYYADSVKGRFTISRDNAKNTVYLQMNSLKPEDTAVYYCAAYAGYSDQARYYYWGQGTQVTVSS | high polyreactivity
20 | QVQLVESGGGLVQAGGSLRLSCAASGLIFRPYAMGWYRQAPGKERELVAAISSSGGSTYYADSVKGRFTISRDNAKNTVYLQMNSLKPEDTAVYYCATYFARGYNSWGQGTQVTVSS | high polyreactivity
21 | QVQLVESGGGLVQAGGSLRLSCAASGLIFRPYDMGWYRQAPGKERELVAAISNGDSTNYADSVKGRFTISRDNAKNTVYLQMNSLKPEDTAVYYCAAEDYYIYREPYDYWGQGTQVTVSS | low polyreactivity
22 | QVQLVESGGGLVQAGGSLRLSCAASGLIFRPYTMGWYRQAPGKERELVAAISRSGGSTYYADSVKGRFTISRDNAKNTVYLQVNSLKPEDTAVYYCNAVPRRQGFNYWGQGTQVTVSS | high polyreactivity

Row | Sequence | polyreactivity (PSR sort gate)
23 | QVQLVESGGGLVQAGGSLRLSCAASGLIFRSYAMGWYRQAPGKERELVARISIRGGSTYYADSVKGRFTISRDNAKNTVYLQLNSLKPEVTAVYYCAAVGYFGGYRYDYWGHGTQVTVSS | high polyreactivity
24 | QVQLVESGGGLVQAGGSLRLSCAASGLIFRTNAMGGYRQAPGKERELVAAISWSTGTTYYADSVKGRFTISRDIAKNTVYFQMNSVNPEDTAVSYCARTLRWTYRYGYWGQGTQVTVSS | high polyreactivity
25 | QVQLVESGGGLVQAGGSLRLSCAASGLIFRVNAMGWYRQAPGKERELVASISVSGGSTYYADSVKGRFTISRDNAKNTVYLQMNSLKPEDTAVYYCAASQYHKGYLFSYPYEYDYWGQGTQVTVSS | low polyreactivity
26 | QVQLVESGGGLVQAGGSLRLSCAASGLIFRWYAMGWYRQAPGKERELVAAISRRGGTTNYADSVKGRFTISRDNAKNTVYLQMNSLKPEDTAVYYCAADYQSVGGAEYDYWGQGTQVTVSS | high polyreactivity
27 | QVQLVESGGGLVQAGGSLRLSCAASGLIFRYKAMGWYRQAPGKERELVAAISRSRGTTYYADSVKGRFTISRDNAKNTVYLQMNSLKPEDTAVYYCATRISQSYYNYGYWGQGTQVTVSS | high polyreactivity
28 | QVQLVESGGGLVQAGGSLRLSCAASGLIFRYYAMGWYRQAPGKERELVAAISKSGGRTYYADSVKGRFTISRDNAKNTVYLQMNSLKPEDTAVYYCATGVRGYVGWSSALYYEYDYWGQGTQVTVSS | high polyreactivity
29 | QVQLVESGGGLVQAGGSLRLSCAASGLIFRYYAMGWYRQAPGKERELVATIRGGGSTYYADSVKGRFTISRDNAKNTVYLQMNSLKPEDTAVYYCAADPYSYGARGARGDYWGQGTQVTVSS | low polyreactivity
30 | QVQLVESGGGLVQAGGSLRLSCAASGLIFRYYAMGWYRQAPGKERELVAVISRRGDSTYYADSVKGRFTISRDNAKNTVYLQMNSLKPEDTAVYYCAAQAFVSYFKFRGGYWGQGTQVTVSS | high polyreactivity
31 | QVQLVESGGGLVQAGGSLRLSCAASGLIFSDNAMGWYRQAPGKEREFVASISDSGTTTYYADSVKGRFTISRDNAKNTVYLQMNSLKPEDTAVYDCNARPGQSGARFGYWGQGTQVTVSS | high polyreactivity
32 | QVQLVESGGGLVQAGGSLRLSCAASGLIFSGYAMGWYRQAPGKDRELVAAITWSGGRTYADSVKGRFTISRDNAKNTVYLQMNSLKPEDTAVYYCNADAYIDYWPYTWDYDYWGQGTQVTVSS | high polyreactivity
33 | QVQLVESGGGLVQAGGSLRLSCAASGLIFSPYAMGWYRQAPGKEREFVAAITSRGGTYYADSVKGRFTISRDNAKNTVYLQMNSLKPEDTAVYYCAAKSLYSKRQQYEYWGQGTQVTVSS | low polyreactivity
34 | QVQLVESGGGLVQAGGSLRLSCAASGLIFSRYAMGWYRQAPGKERELVAVISWSGGRTYYADSVKGRFTISRDNAKNTVYLQMNSLKPEDTAVYYCAARSYGGQGVRMDYWGQGTQVTVSS | high polyreactivity
35 | QVQLVESGGGLVQAGGSLRLSCAASGLIFSSNAMGWYRQAPGKERELVAAISRRGGNTYYADSVKGRFTISRDNAKNTVYLQMNSLKPEDTAVYYCAIRYVGRGTSYQDYYWGLGTQVTVSS | high polyreactivity
36 | QVQLVESGGGLVQAGGSLRLSCAASGLIFSSYVMGWYRQAPGKERELVAAISSKGGSTYYADSVKGRFTISRDNAKNTVYLQMNSLKPEDTAVYYCAARVYYPVRYGYWGQGTQVTVSS | high polyreactivity
37 | QVQLVESGGGLVQAGGSLRLSCAASGLIFSYNAMGWYRQAPGKERELVAAISYSGGSTYYADSVKGRFTNSRDNAKNTVYLQMNSLKPEDTAVYYCAAVWRRQGSAYVGSYGYDYWGQGTQVTVSS | high polyreactivity
38 | QVQLVESGGGLVQAGGSLRLSCAASGLIFSYNAMGWYRQAPGKERELVATIRRVGSTNYADSVKGRFTISRDNAKNTVYLQMNSLKPEDTAVYYCAARSLRYGRGMYYWGQGTQVTVSS | high polyreactivity
39 | QVQLVESGGGLVQAGGSLRLSCAASGLIFSYYAMGWYRQAPGKERELVAAIDWISGSTYYADSVKGRFTISRDNAKNTVYLQMNSLKPEDTAVYYCAAYGSFWYAGFGYWGQGTQVTVSS | low polyreactivity
40 | QVQLVESGGGLVQAGGSLRLSCAASGLIFSYYAMGWYRQAPGKERELVAAITGSGGTTYYADSVMGRFTISRDNANNTVYLQMNSLKPEDTAVYYCATPPPEVWQRWYREYDYWGQGTQVTVSS | low polyreactivity
41 | QVQLVESGGGLVQAGGSLRLSCAASGLIFTNNAMGWYRQAPGKERELVAGINSGGRTNYADSVKGRFTISRDNAKNTVYLQKNSLKPEDTAVYYCAARWWVKSRPNRYNYWGQGTQVTVSS | high polyreactivity
42 | QVQLVESGGGLVQAGGSLRLSCAASGLIFTPYAMGWYRQAPGKERELVAAISVSGGRTYYADSVKGRFTISRDNAKNTVYLQMNSLKPEDTAVYYCAASDRYGGRDYWGQGTQVTVSS | high polyreactivity
43 | QVQLVESGGGLVQAGGSLRLSCAASGLIFTRNFMGWYRQAPGKERELVAAITSGGSTYYADSVKRRFTISRDNAKNTVYLQMNSLNPEDTADYYCAAGCDYLLSTVRFDYWGQGTQVTVSS | high polyreactivity
